The labels stand for the following.
B1: TPR t1 (parent)
chain: GACCAAUCUGCCCUCAGAGCUCGAGAACAUCUUCGGAUGCAGAGGAGGCAGGCUUCGGUGGCGCGAUAGCGCCAACGUCCUCAACCUCCAAUGCAUCCCACCACAUGAUGAUGCCUGAAGAGCCUUGGUUUUUUG

This data set covers variants of B1. The data set is described as follows: polymerase ribozyme fitness, log enrichment relative to wild type (log ratio); higher = more active; in vitro selection for triplet polymerase activity. An outline of the steps: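 The heterodimeric triplet polymerase ribozyme's subunits were each mutagenized into PCR-built libraries and transcribed. Every library was selected once, in triplicate, by annealing with a biotinylated primer, the partner subunit and triplets, incubating frozen at −7 °C, gel-excising extended constructs, capturing on streptavidin beads and running RT-PCR. Input and output libraries were Illumina-sequenced, with genotypes kept only at ≥10 input reads and ≥1 read per output. Fitness, from inverse-variance-weighted replicate averages, is the base-2 logarithm of genotype enrichment over wild-type enrichment.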
Regarding GACCAAUCUGCCCUCAGAGCUCGAGAACAUCUUCGGAUGCAGAGGAGGCAGGCUUCGGUGGCGCGAUAGCGCCAACGUCCUCAACCUCCAAUGCAACCAACCACAGGAUGAUGCCUGAAGAGCCUUGGUUUUUUG [U96A C99A U106G], the “polymerase ribozyme fitness (log ratio)” value was -5.31.

Consider GACCAAUCUGACCUCAGAGCUCGAGAACAUCUUCGGAUGCAGAGGACGCAGGCUUCGGUGGCGCGAUAGCGGCAACGUCCUCAACCUCCAAUGCAUCCCACCACAUGAUGAUGCCUGAAGAGCCUUGGUUUUUUG [C11A G47C C72G], for which the “polymerase ribozyme fitness (log ratio)” value is -3.64. In the case of GACCAAUCUGCCCUCAGAGCUCGAGAAUAUCUUCGGAUGAAGAGGAGGCAGGCUUCGGUGGCGCGAUAGCGCCAACGUCCUCAACCUCCAAUGCAUCCCACCACAUGAUGAUGCCUGAACAGCCUUGGUUUUUUG [C28U C40A G120C] it was -2.59; in that of GACCAAUCUGCCCUCAGAGCUCGAGAACAUCUUCGGAUGCAGAGGAGGCAGUCUUCGGUGGCGCGAUAGCGCCAACGUCCUCAACCUCCAAUGCAUCCCACCACAUGAUGAUGCCUGAAGCGCCUUGGUUUUUUG [G52U A121C], 1.02; in that of GACCAAUCUGCCCUCAGAGCUCGAGAACAUCUUCGGAUGCACAGGAGGCAGGCUUCGGUGGCGCGAUAGCGCCAACGUCCUCAACCUCCAAUGCAUCCCACCACAUGAUGAUGCCUGAAGAGCGUUGGUUUUUUG [G42C C124G], 0.37.

Take GACCAAUCUCCCCUCAGAGCUCGAGAACAUCUUCGGAGGCACAGGAGGCAGGCUUCGGUGGCGCGAUAGCGCCAACGUCCUCAACCUCCAAUGCAUCCCACCACAUGAUGAUGCCUGAAGUGCCUUGGUUUUUUG [G10C U38G G42C A121U]: the “polymerase ribozyme fitness (log ratio)” value is -1.8. With GACCAAUCUUCCCUCAGAGCGCGAGAACAUCUUCGGAUGCAGAGGAGGCAGGCUUCGGUGGCGCGAUAGAGCCAACGUCCUCAACCUCCAAUGCAUCCCACCACAUGAUGAUGCCUGAAGAGCCUUGGUUUUUUG [G10U U21G C70A], the “polymerase ribozyme fitness (log ratio)” value was -5.22. GACCAAUCUGCCCUCAGAGCUCGAGAACAUCUUCGGAUGCAGAGGAGGCAUGCUUAGGUGGCCCGAUAGCGCCAACGUCCUCAACCUCCAAUGCAUCUUACCACAUGAUGAUGCCUGAAGAGCAUUGGUUGUUUG [G51U C56A G63C C98U C99U C124A U131G]: the “polymerase ribozyme fitness (log ratio)” value is -7.53. In the case of GACCACUUUGUCCUCAGAGCUCGAGAACAUCUUCGGAUGCAGAGGAGGCAGGCUUCGGUGGCGCGAUAUCGCCAACGUCCUCAACCUCCAAUGCAUCCCACCAGAUGAUGAUGCCUGAAGAGCCUUGGUUUUUUG [A6C C8U C11U G69U C104G] it was -5.29; in that of GACCAAUCUGCGCUCAAAGCUCGAGAACAUCUUCGGAUGCAGAGGAGGCAGGCUUCGGUGGUGCGAUAGCGCCAACGUCCUCAACCUCCAAUGCAUCCCAUCACAUGAUGAUGCCUGAAGAGCCUUGGUUUUUUG [C12G G17A C62U C101U], -5.49; in that of GACCAAUCUGCCCUCAGAGCUCGAGAACAUCUUCGGAUGCAGAGGAGGCAGGCUUCGAUGGCGCGAUAGCGCCAACGUCCUCAACCUCCAAUGCAUCCCAUCACAUGAUGAUGCCUGAAUAGCCUUGGUUUUUUG [G58A C101U G120U], -0.534. In the case of GACCUAUCUGCCCUCAGAGCUCGAGAACAUCUUCGGAUGCUGAGGAGGCAGGCUUCGGUGGCGCGAUAGCGCCAACGUCCUCAACCUCCAAUGCAUCCCACCACAUGAUGAUGCCUGAACAGCCUUGGUUUUUUG [A5U A41U G120C] it was -1.47; in that of GACCAAUCUGGCCUCAGAGCUCGAGAACAUCUGCGGAUGCAGAGGAGGCAGGCUUCGGUGGCGCGAUAGCGCCAACGUCCUCAACCUCCAAUUCAUCCCACCACAUGAUGAAGCCUGAAGAUCCUUGGUUUUUUG [C11G U33G G93U U112A G122U], -6.28. In the case of GACCAAUCUGCCCUCAGAGCUCGAGAACAUCUUCGGGUGCAGAGGAGGCAGGCUUCGGUGGCGCGAUAGCGACAACGUCCUCAGCCUCCAAUGCAUCCCACCACAUGAUGAUGCCUGAAGAGCCUUGGUUUUUUG [A37G C72A A84G], the “polymerase ribozyme fitness (log ratio)” value is -1.24. The same measure for GACCAAUCUGCCCUCAGAGCUCGAGAACAUCUUCGGAUGCAGAGGAGGCAGGCUUCGGUGCCGCGAUAGCGCCAACGUCCUCAACCUCCAAUGCAUCCCUCCACAUGAUGAUGCCUGAACAGCCUUUGUUUUUUG [G61C A100U G120C G127U]: -1.07. The same measure for GACCAAUCUGCCCUCAGCGCUCGAGAACAUCUUCGGAUGCAGAGGAGGCAGGCUUCGGUGGCGCGAUAGCGCCAACGUCCUCAACCUCCAAUGCAUCCCACCAAAUGAUGAUGCCUGAAGAGCCUUGGUUUUUUG [A18C C104A]: -4.52; for GACCAAUCUGCCCUCAGAGCUUGAGAACAUCUUCGGAUGCCGAGGAGGCAGGCUUCGGUAGCGCGAUAGCGCCAACGUCCUCAACCUCCAAUGCAUCCUACCACAUGAUAAUGCCUGAAGAGCCUUGGGUUUUUG [C22U A41C G60A C99U G110A U129G]: -6.8. Take GAUCAAUCUGCCCUCAGAGCUCGAGAACAUCUUCGGAUGCAGAGGAGGCAGGCUUCGGUGGCGCGAUAGCGCCAACGUCCUCAACCUCCAAUGCAUCCCACUACAUGAUGAUGCCUUAAGAGCCUUGGUUUUUUG [C3U C102U G117U]: the “polymerase ribozyme fitness (log ratio)” value was -4.61. The same measure for GACCAUUCUGCCCUCAGAGCUCGAGAACAUCUUCGGAUGCAGAGGAGGCAGGCUUCGGUGGCGCGAUAACGCCAACGUCCUCAACCUCCAAUGCAUCCCACCACAUGAUGAUGCCUGAAGAGCAUUGGUUUUUUG [A6U G69A C124A]: -1.22; for GACCAAUCUGCCCUCAGAGCUCGAGAAUAUCUUCGGAUGCAGAGGAGGCAGGCUUCGGUGGCGCGAUAGCGCCAACGUCCUCAACCUCCAAUGCAUCCCACCACAUGAUGAUGCCUGAAAAGCCUUGGUUUUUUG [C28U G120A]: -1.19.

Regarding GACCAAGCUGCCCUCAGAGCUCGAGAACAUCUUCGGAUGCAGAGGAGGCACGCUCCGGUGGCGCGAUAGCGCCAACGUCCUCAACCUCCAAUGCAUCCCACCACAUGAUGAUGCCUGAAGAGCCUUGGUUUUUUG [U7G G51C U55C], the “polymerase ribozyme fitness (log ratio)” value is -2.32.
